Starred links: 1 amine or outer side, 2 acyl side, 3 side chain; linkers in the order of their positions; H or OH if unused. Positions of bridges follow the written chain, without caps; N, C: chain ends. Non-standard residues stand in square brackets, D forms with d. Primed or numbered codes have the meaning given here. PyrS2″ = (S)-3-amino-1-((pent-4-en-1-yloxy)carbonyl)pyrrolidine-3-carboxylic acid (stapling residue), C=CCCCOC(=O)N1CC[C@@](N[*:1])(C(=O)[*:2])C1; B5(24) = 2-amino-2-(pent-4-en-1-yl)hept-6-enoic acid, 2,2-bis(4-pentenyl)glycine (stitching residue), C=CCCCC(CCCC=C)(N[*:1])C(=O)[*:2]; B5(4) = 2,2-bis(4-pentenyl)glycine = 2-amino-2-(pent-4-en-1-yl)hept-6-enoic acid (stitching residue), C=CCCCC(CCCC=C)(N[*:1])C(=O)[*:2]; Phe(2-Cl) = N[C@@H](Cc1ccccc1Cl)C(=O)O; Bta = N[C@@H](Cc1csc2ccccc12)C(=O)O; αAllylPro = C=CC[C@@]1(C(=O)O)CCCN1; tBuAla = CC(C)(C)C[C@H](N)C(=O)O; 3Thi = N[C@@H](Cc1ccsc1)C(=O)O; Cha = N[C@@H](CC1CCCCC1)C(=O)O; S8 = C=CCCCCCC[C@](C)(N)C(=O)O; hSer = N[C@@H](CCO)C(=O)O; Abu = CC[C@H](N)C(=O)O
B1: I-1137 (peptide)
peptide: Ac-[αAllylPro]D[Cha][B5(4)]DDAAFS[PyrS2″][Phe(2-Cl)][Bta][hSer]-NH2
modifications: staple 1-4, 4-11
B2: I-1138 (peptide)
peptide: Ac-[αAllylPro]D[Cha][B5(4)]DDAAFS[PyrS2″][Phe(2-Cl)][Bta]L-NH2
modifications: staple 1-4, 4-11
B3: I-1139 (peptide)
peptide: Ac-[αAllylPro]D[Cha][B5(4)]DDAAFL[PyrS2″][Phe(2-Cl)][Bta]T-NH2
modifications: staple 1-4, 4-11
B4: I-1140 (peptide)
peptide: Ac-[αAllylPro]D[Cha][B5(4)]DDAAFL[PyrS2″][Phe(2-Cl)][Bta][dT]-NH2
modifications: staple 1-4, 4-11
B5: I-1147 (peptide)
peptide: Ac-[αAllylPro]D[Cha][B5(4)]DDLAFS[PyrS2″][Phe(2-Cl)][Bta]Q-NH2
modifications: staple 1-4, 4-11
B6: I-1148 (peptide)
peptide: Ac-[αAllylPro]D[Cha][B5(4)]DDALFS[PyrS2″][Phe(2-Cl)][Bta]Q-NH2
modifications: staple 1-4, 4-11
B7: I-1150 (peptide)
peptide: Ac-[αAllylPro]D[Cha][B5(4)]DDLAFT[PyrS2″][Phe(2-Cl)][Bta]S-NH2
modifications: staple 1-4, 4-11
B8: I-1151 (peptide)
peptide: Ac-[αAllylPro]D[Cha][B5(4)]DDALFT[PyrS2″][Phe(2-Cl)][Bta]S-NH2
modifications: staple 1-4, 4-11
B9: I-568 (peptide)
peptide: Ac-[αAllylPro]D[Abu][B5(4)]DEAAFQ[S8]F[Bta]Q-NH2
modifications: staple 1-4, 4-11
B10: I-569 (peptide)
peptide: Ac-[αAllylPro]D[Abu][B5(4)]DEAAFQ[S8]F[Bta]Q-NH2
modifications: staple 1-4, 4-11
B11: I-570 (peptide)
peptide: Ac-[αAllylPro]D[Abu][B5(4)]DEAAFQ[S8]F[Bta]H-NH2
modifications: staple 1-4, 4-11
B12: I-684 (peptide)
peptide: Ac-[αAllylPro]D[tBuAla][B5(4)]DEAAFN[PyrS2″]F[Bta]Q-NH2
modifications: staple 1-4, 4-11; not fully specified; printed as Ac-PL3-Asp-Npg-B5-Asp-Glu-Ala-Ala-Phe-Asn-PyrS2-Phe-BztA-Gln-NH2
B13: I-685 (peptide)
peptide: Ac-[αAllylPro]D[tBuAla][B5(4)]DEAAFN[PyrS2″]F[Bta]Q-NH2
modifications: staple 1-4, 4-11; not fully specified; printed as Ac-PL3-Asp-Npg-B5-Asp-Glu-Ala-Ala-Phe-Asn-PyrS2-Phe-BztA-Gln-NH2
B14: I-690 (peptide)
peptide: Ac-[αAllylPro]D[tBuAla][B5(4)]DEAAFN[PyrS2″][3Thi][Bta]Q-NH2
modifications: staple 1-4, 4-11; not fully specified; printed as Ac-PL3-Asp-Npg-B5-Asp-Glu-Ala-Ala-Phe-Asn-PyrS2-3Thi-BztA-Gln-NH2
B15: I-691 (peptide)
peptide: Ac-[αAllylPro]D[tBuAla][B5(4)]DEAAFN[PyrS2″][3Thi][Bta]Q-NH2
modifications: staple 1-4, 4-11; not fully specified; printed as Ac-PL3-Asp-Npg-B5-Asp-Glu-Ala-Ala-Phe-Asn-PyrS2-3Thi-BztA-Gln-NH2
B16: I-692 (peptide)
peptide: Ac-[αAllylPro]D[tBuAla][B5(4)]DEAAFN[PyrS2″]F[Bta]H-NH2
modifications: staple 1-4, 4-11; not fully specified; printed as Ac-PL3-Asp-Npg-B5-Asp-Glu-Ala-Ala-Phe-Asn-PyrS2-Phe-BztA-His-NH2

Target: full-length beta-Catenin (Uniprot ID P35222) (Homo sapiens (Human)) (UniProt P35222)
Assay: fluorescence polarization competition vs 5FAM-TCF4(10-53) on full-length beta-catenin
Target sequence in this assay (P35222 2-781 limits assumed): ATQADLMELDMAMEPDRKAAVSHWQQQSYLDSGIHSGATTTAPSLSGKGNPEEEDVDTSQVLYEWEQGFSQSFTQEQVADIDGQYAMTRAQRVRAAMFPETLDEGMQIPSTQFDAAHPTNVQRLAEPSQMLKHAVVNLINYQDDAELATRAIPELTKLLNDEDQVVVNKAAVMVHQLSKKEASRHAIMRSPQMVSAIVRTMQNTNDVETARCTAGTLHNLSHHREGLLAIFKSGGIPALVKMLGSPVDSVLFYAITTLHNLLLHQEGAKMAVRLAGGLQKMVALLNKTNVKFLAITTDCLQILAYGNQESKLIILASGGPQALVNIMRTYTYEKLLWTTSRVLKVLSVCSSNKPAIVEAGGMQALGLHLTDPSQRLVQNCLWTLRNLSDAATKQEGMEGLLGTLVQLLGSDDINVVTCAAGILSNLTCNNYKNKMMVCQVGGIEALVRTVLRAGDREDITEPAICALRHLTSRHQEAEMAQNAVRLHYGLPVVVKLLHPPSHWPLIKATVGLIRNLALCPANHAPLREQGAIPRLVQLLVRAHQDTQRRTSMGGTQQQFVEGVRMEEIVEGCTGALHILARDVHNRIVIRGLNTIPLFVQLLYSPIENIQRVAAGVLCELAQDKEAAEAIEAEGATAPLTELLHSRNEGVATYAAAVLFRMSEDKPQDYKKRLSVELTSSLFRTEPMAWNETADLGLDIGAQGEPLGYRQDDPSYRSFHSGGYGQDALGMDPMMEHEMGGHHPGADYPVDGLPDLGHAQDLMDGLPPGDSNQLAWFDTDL

| Binder | IC50 [nM] |
| --- | --- |
| B1 | 8 |
| B2 | 18 |
| B3 | 22 |
| B4 | 33 |
| B5 | 10 |
| B6 | 50 |
| B7 | 12 |
| B8 | 30 |

Target: full-length beta-Catenin (Uniprot ID P35222) (Homo sapiens (Human)) (UniProt P35222)
Assay: fluorescence polarization competition, 5FAM-TCF4 10-53 probe on full-length beta-catenin
Target sequence in this assay (P35222 2-781 limits assumed): as above

| Binder | EC50 [nM] |
| --- | --- |
| B1 | 8 |
| B2 | 18 |
| B3 | 22 |
| B4 | 33 |
| B5 | 10 |
| B6 | 50 |
| B7 | 12 |
| B8 | 30 |

Target: Bcat-Halo (UniProt P35222)
Sequence (P35222 whole entry): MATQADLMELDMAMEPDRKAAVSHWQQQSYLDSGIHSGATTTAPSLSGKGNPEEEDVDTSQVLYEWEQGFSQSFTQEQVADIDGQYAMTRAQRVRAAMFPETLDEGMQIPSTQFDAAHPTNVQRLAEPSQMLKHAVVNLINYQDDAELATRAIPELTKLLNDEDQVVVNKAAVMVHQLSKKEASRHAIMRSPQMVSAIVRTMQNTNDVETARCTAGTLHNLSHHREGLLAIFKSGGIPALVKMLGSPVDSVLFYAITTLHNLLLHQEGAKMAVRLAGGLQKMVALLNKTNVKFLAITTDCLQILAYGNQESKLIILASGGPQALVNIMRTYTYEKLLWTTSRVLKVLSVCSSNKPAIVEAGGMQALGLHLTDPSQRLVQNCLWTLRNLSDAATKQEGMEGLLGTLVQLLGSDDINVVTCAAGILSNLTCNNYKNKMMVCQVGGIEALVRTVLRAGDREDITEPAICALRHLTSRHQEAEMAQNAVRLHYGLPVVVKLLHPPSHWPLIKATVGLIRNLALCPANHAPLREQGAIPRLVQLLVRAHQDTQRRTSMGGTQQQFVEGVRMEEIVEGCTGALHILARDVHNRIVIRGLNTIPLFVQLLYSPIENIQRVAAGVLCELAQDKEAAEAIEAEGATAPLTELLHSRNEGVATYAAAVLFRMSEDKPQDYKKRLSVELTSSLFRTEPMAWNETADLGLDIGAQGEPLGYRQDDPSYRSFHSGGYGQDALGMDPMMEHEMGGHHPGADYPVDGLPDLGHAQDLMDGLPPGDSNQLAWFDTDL
Assay: NanoBRET Abs IC50 in HEK293 cells; competitor TCF4-Luc on Bcat-Halo

| Binder | IC50 [µM] |
| --- | --- |
| B1 | 12 |
| B2 | 19.8 |
| B3 | 18 |
| B4 | 32.5 |
| B5 | 21.1 |
| B6 | 21.5 |
| B7 | 21.4 |
| B8 | 25.3 |

Target: full-length beta-Catenin (Uniprot ID P35222) (Homo sapiens (Human)) (UniProt P35222)
Assay: fluorescence polarization competition; displacement of 5FAM-TCF4(10-53) from full-length beta-catenin
Target sequence in this assay (P35222 whole entry, one chain of several): as the sequence (P35222 whole entry) above

| Binder | EC50 [nM] |
| --- | --- |
| B9 | 73 |
| B10 | 42 |
| B11 | 56 |

Target: full-length beta-Catenin (Uniprot ID P35222) (Homo sapiens (Human)) (UniProt P35222)
Assay: fluorescence polarization competition; full-length beta-catenin + 5FAM-TCF4(10-53) probe; peptide titrated
Target sequence in this assay (P35222 2-781 limits assumed): as the sequence (P35222 2-781 limits assumed) above

| Binder | EC50 [nM] |
| --- | --- |
| B12 | 15 |
| B13 | 25 |
| B14 | 7 |
| B15 | 9 |
| B16 | 9 |

Target: full-length beta-Catenin (Uniprot ID P35222) (Homo sapiens (Human)) (UniProt P35222)
Assay: competition fluorescence polarization; full-length beta-catenin, 5FAM-TCF4(10-53) probe as competitor
Target sequence in this assay (P35222 whole entry, one chain of several): as the sequence (P35222 whole entry) above

| Binder | IC50 [nM] |
| --- | --- |
| B9 | 73 |
| B10 | 42 |
| B11 | 56 |

Target: Bcat-Halo (UniProt P35222)
Assay: NanoBRET in HEK293 cells (Bcat-Halo / TCF4-Luc), absolute IC50; competitor: TCF4-Luc

| Binder | IC50 [µM] |
| --- | --- |
| B12 | 14.3 |
| B13 | 19.4 |
| B14 | 17.8 |
| B15 | 17 |
| B16 | 25.6 |

Target: full-length beta-Catenin (Uniprot ID P35222) (Homo sapiens (Human)) (UniProt P35222)
Assay: fluorescence polarization competition; full-length beta-catenin; competitor displaced: 5FAM-TCF4 10-53
Target sequence in this assay (P35222 2-781 limits assumed): as the sequence (P35222 2-781 limits assumed) above

| Binder | IC50 [nM] |
| --- | --- |
| B12 | 15 |
| B13 | 25 |
| B14 | 7 |
| B15 | 9 |
| B16 | 9 |
